Reference: patent publication US20250197451A1 (CAPITAL MEDICAL UNIVERSITY SCHOOL OF STOMATOLOGY, published 2025)

biological target: T1, biotin-labelled EZH2 protein (UniProt Q15910 1-746, limits assumed, biotin label (EZ-link NHS-PEO4-Biotinylation kit)); assay: KDM2B peptide array probed with biotin-EZH2 1 ug/ml, SA-HRP/ECL;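 also: Background-corrected optical density of each spot on the membrane, given as percent of the brightest spot (100%), color developed for 5 minutes; 100% is the highest background-corrected spot optical density on the membrane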
T1 construct: Probe in solution (1 ug/ml) on the KDM2B peptide microarray; also called NHS-PEO4-Biotinylation-labelled EZH2 protein; recombinant protein
T1 sequence (Q15910 whole entry): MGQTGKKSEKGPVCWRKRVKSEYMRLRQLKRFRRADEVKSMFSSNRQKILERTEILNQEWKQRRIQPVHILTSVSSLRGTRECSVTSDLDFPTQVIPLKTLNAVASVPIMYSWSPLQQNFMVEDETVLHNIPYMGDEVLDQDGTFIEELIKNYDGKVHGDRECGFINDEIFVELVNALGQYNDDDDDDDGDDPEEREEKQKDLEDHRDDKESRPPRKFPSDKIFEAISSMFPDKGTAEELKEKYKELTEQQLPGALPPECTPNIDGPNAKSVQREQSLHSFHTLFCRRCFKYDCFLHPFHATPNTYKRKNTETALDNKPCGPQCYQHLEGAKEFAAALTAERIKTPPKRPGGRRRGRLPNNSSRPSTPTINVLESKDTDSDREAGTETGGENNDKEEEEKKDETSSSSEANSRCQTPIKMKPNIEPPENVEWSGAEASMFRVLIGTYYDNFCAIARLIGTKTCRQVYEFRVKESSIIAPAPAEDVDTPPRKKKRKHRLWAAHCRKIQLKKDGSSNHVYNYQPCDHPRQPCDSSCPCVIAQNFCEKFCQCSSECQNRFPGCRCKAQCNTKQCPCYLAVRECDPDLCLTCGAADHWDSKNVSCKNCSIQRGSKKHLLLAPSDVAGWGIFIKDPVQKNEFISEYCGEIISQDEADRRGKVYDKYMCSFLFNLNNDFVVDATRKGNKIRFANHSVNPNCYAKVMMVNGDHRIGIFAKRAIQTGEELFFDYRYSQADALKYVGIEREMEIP
Method: After blocking, the polypeptide microarray was incubated with biotin-labeled target protein for hybridization, visualized with the chemical chromogenic substrate and imaged using a Chempchemi digital imager. The image of colored polypeptide microarray was analyzed for the optical density of the colored points. Particularly, the optical density of each colored point was calculated using the optical density of the respective surrounding background as a reference for background correction. The highest optical density value of the colored point on membrane was set to 100%, and the optical density value of the remaining colored points was converted into percentages relative to the highest value. The points with an optical density percentage of more than 30% on the polypeptide membrane and also with an optical density percentage of less than 30% on the negative membrane were defined as positive colored points.
For the hybridization experiment, a solution of NHS-PEO4-Biotinylation-labelled EZH2 protein (1 μg/ml) was used for the hybridization of the polypeptide microarray. Streptavidin-HRP was used to amplify the reaction signal according to the experimental procedure and conditions described above, and the time of color development was 5 minutes.

Compared with SLPENKKCVPEGIED [peptide 106], VEKLESLPENKKCVP [peptide 105] is higher in “Intensity (%)” value: 3.77% for the first, 20.3% for the second.

FGGPGRMKQSCIMRQ [peptide 128] and KGKLGPASAVKLAAN [peptide 118] are the same in “Intensity (%)” value: 0% for the first, 0% for the second.

HPGCLKIKESEGVVN [peptide 140] and KKCVPEGIEDPQALL [peptide 107] are the same in “Intensity (%)” value: 0% for the first, 0% for the second.

Compared with CIAPVLPHTAVCLVC [peptide 131], AVGRPKGKLGPASAV [peptide 117] is lower in “Intensity (%)” value: 100% for the first, 0% for the second.

Compared with SQLYQGDFVHAMEGK [peptide 16], QEPAKRRSECEEAPR [peptide 153] is higher in “Intensity (%)” value: 1.87% for the first, 41.6% for the second.

Going from SWKNAEDRMALANKP [peptide 175] to DNKEGQEPAKRRSEC [peptide 152], the “Intensity (%)” value rises from 0% to 97.8%.

First: SLAITGVPVVTWPKK [peptide 113]
Second: TWPKKTPKNRAVGRP [peptide 115]
The “Intensity (%)” value of the first is higher: 1.55% for the first, 0% for the second.

Going from HSKKVPPDGLLRRKS [peptide 157] to MECSICNEIIHPGCL [peptide 138], the “Intensity (%)” value rises from 18.4% to 26.8%.

Compared with RRSDEHSKKVPPDGL [peptide 156], MAGPQMGGSAEDHPP [peptide 1] is higher in “Intensity (%)” value: 0% for the first, 0.25% for the second.

First: ARRRRTRCRKCEACL [peptide 122]
Second: ADDDPSLAITGVPVV [peptide 112]
The “Intensity (%)” value of the first is higher: 100% for the first, 0% for the second.

Compared with YEKPQELSGRKRASS [peptide 162], ECHFCKDMKKFGGPG [peptide 126] is higher in “Intensity (%)” value: 0% for the first, 6.05% for the second.

First: DRQRYDENEDLSDVE [peptide 10]
Second: VCLVCGEAGKEDTVE [peptide 133]
The “Intensity (%)” value of the first is lower: 0% for the first, 12% for the second.

Compared with CNEIIHPGCLKIKES [peptide 139], RSSLTYFQQQLKPGK [peptide 170] is lower in “Intensity (%)” value: 85.1% for the first, 2.26% for the second.

RKKRKYEKPQELSGR [peptide 161] and GDFVHAMEGKDFNYE [peptide 17] are the same in “Intensity (%)” value: 0% for the first, 0% for the second.

Going from QKRGPGFKYASNLPG [peptide 147] to LSDVEEIVSVRGFSL [peptide 12], the “Intensity (%)” value rises from 0% to 0.13%.

First: TRCRKCEACLRTECG [peptide 123]
Second: EGVVNDELPNCWECP [peptide 142]
The “Intensity (%)” value of the first is lower: 97.3% for the first, 100% for the second.

Going from LPHTAVCLVCGEAGK [peptide 132] to LRRKSDDVHLRKKRK [peptide 159], the “Intensity (%)” value falls from 100% to 0%.

First: RKKRRSWKNAEDRMA [peptide 174]
Second: CWECPKCNHAGKTGK [peptide 144]
The “Intensity (%)” value of the first is higher: 0.47% for the first, 0% for the second.

LKPGKEDKLFRKKRR [peptide 172] and LSPRPPLGSSLSPWW [peptide 167] are the same in “Intensity (%)” value: 0% for the first, 0% for the second.

GEAGKEDTVEEEEGK [peptide 134] and EDRMALANKPLRRFK [peptide 176] are the same in “Intensity (%)” value: 0% for the first, 0% for the second.

Compared with EVSAKWTHLTEFELK [peptide 101], GLKALVEKLESLPEN [peptide 104] is higher in “Intensity (%)” value: 2.69% for the first, 8.01% for the second.

Compared with TPKNRAVGRPKGKLG [peptide 116], KIKESEGVVNDELPN [peptide 141] is higher in “Intensity (%)” value: 0% for the first, 10.8% for the second.

EDKLFRKKRRSWKNA [peptide 173] and PQALLEGVKNVLKEH [peptide 109] are the same in “Intensity (%)” value: 0% for the first, 0% for the second.

Going from RTTAGARRRRTRCRK [peptide 121] to KLAANRTTAGARRRR [peptide 120], the “Intensity (%)” value falls from 1.31% to 0%.

PLGSSLSPWWRSSLT [peptide 168] and GVPVVTWPKKTPKNR [peptide 114] are the same in “Intensity (%)” value: 0% for the first, 0% for the second.

EGIEDPQALLEGVKN [peptide 108] and GSPATEVSAKWTHLT [peptide 100] are the same in “Intensity (%)” value: 0% for the first, 0% for the second.

EEKLRSQLYQGDFVH [peptide 15] and DENEDLSDVEEIVSV [peptide 11] are the same in “Intensity (%)” value: 0% for the first, 0% for the second.

First: QKMNRDNKEGQEPAK [peptide 151]
Second: GSSSHLSPRPPLGSS [peptide 166]
The “Intensity (%)” value of the first is higher: 100% for the first, 0.84% for the second.

Compared with PASAVKLAANRTTAG [peptide 119], RTECGECHFCKDMKK [peptide 125] is higher in “Intensity (%)” value: 0% for the first, 1.57% for the second.

Going from EFELKGLKALVEKLE [peptide 103] to FNLMLMECSICNEII [peptide 137], the “Intensity (%)” value falls from 4.44% to 0.24%.

WTHLTEFELKGLKAL [peptide 102] and PPDGLLRRKSDDVHL [peptide 158] are the same in “Intensity (%)” value: 0% for the first, 0% for the second.

CEACLRTECGECHFC [peptide 124] and DELPNCWECPKCNHA [peptide 143] are the same in “Intensity (%)” value: 0% for the first, 0% for the second.

Compared with VLKEHADDDPSLAIT [peptide 111], EGVKNVLKEHADDDP [peptide 110] is lower in “Intensity (%)” value: 0.99% for the first, 0% for the second.

Compared with RMKQSCIMRQCIAPV [peptide 129], GFKYASNLPGSLLKE [peptide 148] is lower in “Intensity (%)” value: 9.37% for the first, 0% for the second.

LSPWWRSSLTYFQQQ [peptide 169] and YFQQQLKPGKEDKLF [peptide 171] are the same in “Intensity (%)” value: 0% for the first, 0% for the second.

For EEEGKFNLMLMECSI [peptide 136], the “Intensity (%)” value was 0%.
